Columns and labels:
Format in all cases: in vivo
[1] = tested on: Arabidopsis thaliana T1 plants; assay: Topramezone tolerance of transgenic Arabidopsis thaliana T1 plants (spray, bleached leaf area grade, damage score); conditions: 7 DAT, Table 4; for Classification and statistics of the grade of pesticide damage: Grade 0 / Classification and statistics of the grade of pesticide damage: Grade 1 / Classification and statistics of the grade of pesticide damage: Grade 2 / Classification and statistics of the grade of pesticide damage: Grade 3: number of plants; for Scores: pesticide damage score 0-100
In short: (§1)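 Damage graded 0–3 from the proportion of bleached leaf area 7 days after spraying. Plants were glufosinate-selected T1 lines, 18 days after sowing, plus vector and wild-type controls. Rates: mesotrione 52.5–420, isoxaflutole 35–280, topramezone 25–200 g ai/ha, with water (0×).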

[2] = tested on: Arabidopsis thaliana T1 plants; assay: Isoxaflutole tolerance of transgenic Arabidopsis thaliana T1 plants (spray, bleached leaf area grade, damage score); design: Scores (pesticide damage): scale not given here; conditions: spray, Arabidopsis thaliana T1 plants; for Classification and statistics of the grade of pesticide damage: Grade 0 (number of plants) / Classification and statistics of the grade of pesticide damage: Grade 1 (number of plants) / Classification and statistics of the grade of pesticide damage: Grade 2 (number of plants) / Classification and statistics of the grade of pesticide damage: Grade 3 (number of plants): 16 plants
In short: as §1

[3] = tested on: Arabidopsis thaliana T1 plants; assay: Mesotrione tolerance of transgenic Arabidopsis thaliana T1 plants (spray, bleached leaf area grade, damage score); design: Scores: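 damage score 0-100 computed as Σ(N×S)/(T×M)×100 over grades 0-3 with higher meaning more damage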; conditions: Arabidopsis thaliana T1 plants; for Grade 0 (classification and statistics of the grade of pesticide damage; number of plants) / Grade 1 (classification and statistics of the grade of pesticide damage; number of plants) / Grade 2 (classification and statistics of the grade of pesticide damage; number of plants) / Grade 3 (classification and statistics of the grade of pesticide damage; number of plants): 16 plants
In short: as §1

[4] = isoxaflutole 35 g ai/ha (0.5x field concentration)
[5] = isoxaflutole 70 g ai/ha (1x field concentration)

B1: HvHPPDm-F383W-02: nucleotide sequence encoding Hordeum vulgare HPPD with F383W; vector DBN11764 (nucleic acid)
DNA: ATGCCGCCGACGCCCACCACCCCAGCAGCTACCGGAGCTGCGGCTGCAGTAACCCCTGAGCATGCTCGGCCCCACAGGATGGTGAGGTTTAATCCAAGATCAGATCGTTTTCATACACTCTCGTTCCACCATGTTGAGTTCTGGTGCGCCGACGCGGCTTCAGCGGCCGGGAGGTTCGCCTTCGCGCTGGGGGCCCCTCTTGCCGCGCGTAGTGATTTGTCTACTGGGAATTCAGCGCACGCGTCCCAGCTTCTCCGAAGCGGCAGTCTCGCCTTTCTCTTCACTGCACCATATGCAAATGGATGTGATGCAGCAACTGCTTCCCTGCCGAGCTTTTCTGCGGATGCCGCGAGGCGATTCAGTGCTGACCATGGGATCGCCGTCCGGTCAGTTGCTCTTAGAGTGGCTGATGCTGCTGAGGCATTCAGGGCTTCAAGGCGTCGTGGTGCACGCCCGGCGTTTGCCCCGGTTGATCTTGGGCGGGGGTTTGCTTTTGCAGAGGTGGAGCTGTACGGCGACGTGGTGCTCCGATTTGTTTCTCACCCGGACGGCACTGATGTGCCCTTCTTGCCAGGATTTGAAGGTGTGACCAACCCTGATGCCGTGGATTATGGACTCACAAGATTTGATCATGTGGTTGGCAATGTTCCTGAATTGGCACCTGCTGCCGCTTACATCGCAGGTTTTACTGGCTTCCATGAATTTGCTGAATTCACGGCGGAGGATGTTGGTACAACTGAGTCAGGGCTGAACAGTGTTGTTTTAGCCAACAACTCAGAAGGAGTTCTCCTTCCCTTGAATGAACCTGTTCATGGAACCAAGCGCCGCTCCCAAATTCAAACATTTCTTGAGCACCACGGCGGCCCTGGTGTTCAACATATTGCTGTCGCCTCTAGCGACGTCCTGCGTACATTACGCAAGATGAGGGCTCGGTCCGCAATGGGTGGTTTCGACTTCCTCCCTCCACCATTGCCAAAATATTATGAAGGCGTCAGAAGACTTGCAGGAGATGTCCTCTCTGAAGCTCAGATCAAGGAGTGCCAAGAACTTGGCGTCTTGGTTGATAGAGATGACCAAGGAGTACTTCTGCAGATATTTACAAAACCCGTTGGTGACAGGCCAACTCTTTGGCTGGAGATGATTCAGAGAATTGGCTGCATGGAGAAAGATGAAAGAGGCGAGGAGTACCAGAAGGGTGGTTGTGGAGGCTTTGGAAAAGGAAACTTCTCAGAGCTGTTCAAGTCCATAGAAGATTACGAGAAAAGTCTAGAAGCCAAGCAGTCTGCTGCAGTGCAAGGTTCCTGA
modifications: HvHPPDm-F383W-02 Nucleotide Sequence
notes: vector DBN11764
[1]; topramezone 25 g ai/ha (1×)
  Classification and statistics of the grade of pesticide damage: Grade 0: 4
  Classification and statistics of the grade of pesticide damage: Grade 1: 6
  Classification and statistics of the grade of pesticide damage: Grade 2: 5
  Classification and statistics of the grade of pesticide damage: Grade 3: 1
  Scores: 40
  Resistance evaluation: poorly
[1]; topramezone 100 g ai/ha (4×)
  Classification and statistics of the grade of pesticide damage: Grade 0: 0
  Classification and statistics of the grade of pesticide damage: Grade 1: 0
  Classification and statistics of the grade of pesticide damage: Grade 2: 0
  Classification and statistics of the grade of pesticide damage: Grade 3: 16
  Scores: 100
  Resistance evaluation: non-resistant (non-resistant plants (scores 68-100))
[2]; [4]
  Resistance evaluation: Poorly
  Scores (pesticide damage): 67
  Classification and statistics of the grade of pesticide damage: Grade 0 (number of plants): 0
  Classification and statistics of the grade of pesticide damage: Grade 1 (number of plants): 1
  Classification and statistics of the grade of pesticide damage: Grade 2 (number of plants): 14
  Classification and statistics of the grade of pesticide damage: Grade 3 (number of plants): 1
[2]; [5]
  Resistance evaluation: Non-resistant
  Scores (pesticide damage): 100
  Classification and statistics of the grade of pesticide damage: Grade 0 (number of plants): 0
  Classification and statistics of the grade of pesticide damage: Grade 1 (number of plants): 0
  Classification and statistics of the grade of pesticide damage: Grade 2 (number of plants): 0
  Classification and statistics of the grade of pesticide damage: Grade 3 (number of plants): 16
[3]; mesotrione 52.5 g ai/ha
  Resistance evaluation: Moderately
  Scores: 33
  Grade 0 (classification and statistics of the grade of pesticide damage; number of plants): 2
  Grade 1 (classification and statistics of the grade of pesticide damage; number of plants): 12
  Grade 2 (classification and statistics of the grade of pesticide damage; number of plants): 2
  Grade 3 (classification and statistics of the grade of pesticide damage; number of plants): 0
[3]; mesotrione 105 g ai/ha
  Resistance evaluation: Non-resistant
  Scores: 100
  Grade 0 (classification and statistics of the grade of pesticide damage; number of plants): 0
  Grade 1 (classification and statistics of the grade of pesticide damage; number of plants): 0
  Grade 2 (classification and statistics of the grade of pesticide damage; number of plants): 0
  Grade 3 (classification and statistics of the grade of pesticide damage; number of plants): 16

From patent US20250043302A1, “MUTATED HYDROXYPHENYLPYRUVATE DIOXYGENASE POLYPEPTIDE, AND CODING GENE AND USE THEREOF” (BEIJING DABEINONG BIOTECHNOLOGY CO., LTD., priority 2021, published 2025)
